# *1 amine or outer side, *2 acyl side, *3 side chain or, on linkers, in order; H or OH if unused. Where a SMILES comes first, the peptide text is derived from it. Bridges are numbered along the chain shown (N, C = ends). [ ]: non-standard residue; d: D form. Ala(pyrimidin-5-yl) = N[C@@H](Cc1cncnc1)C(=O)O; NMePhe(4-Me) = CN[C@@H](Cc1ccc(C)cc1)C(=O)O; NMePhe(4-F) = CN[C@@H](Cc1ccc(F)cc1)C(=O)O; X47 = O=C([C@H](Cc1ccoc1)N[*:1])[*:2]; Phe(2-F) = N[C@@H](Cc1ccccc1F)C(=O)O; X1 = O=C(C12CC(CN[*:1])(C1)C2)[*:2]; NMeF = CN[C@@H](Cc1ccccc1)C(=O)O; PhLac = O=C(O)[C@@H](O)Cc1ccccc1; 3Pal = N[C@@H](Cc1cccnc1)C(=O)O; Ahp(2) = CCCCC[C@H](N)C(=O)O; Cba = N[C@@H](CC1CCC1)C(=O)O; αMeC = C[C@](N)(CS)C(=O)O; NMeA = CN[C@@H](C)C(=O)O; Nle = CCCC[C@H](N)C(=O)O
# What was measured:
# [1] = molecular target: KRAS-G12D in AsPC-1 cells (UniProt P01116); test: cell-based or functional assay
# [2] = molecular target: Biotin-labeled KRAS-G12D protein (UniProt P01116-2 1-169, limits assumed, biotin label (site not stated); loaded with BODIPY-GDP); test: cell-based or functional assay
# [3] = molecular target: phosphorylation levels of ERK1/2 in AsPC-1 (homozygous KRAS-G12D) cells (Homo sapiens, UniProt P01116, G12D); test: Cellular phospho-ERK assay in AsPC-1 cells (Alpha Screen), assay medium without fetal bovine serum; format: cell-based; conditions: phospho-ERK AlphaScreen, 18 h;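 also: signal taken as phospho-ERK over total ERK per well, both detected in one multiplex bead assay, EC50 from four-parameter logistic fit of dose-response curves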
# Method: Assay plate was incubated at 37° C. 5% CO2 for the indicated length of time. […] Phosphorylated ERK and total ERK levels were detected by Alpha SureFire Ultra Multiplex pERK kit (PerkinElmer MPSU-PTERK) using 5 μL, acceptor bead mix and 5 μL donor bead mix, both prepared following the manufacturer's protocol. Plates were sealed using aluminum sealing tape (Costar 07-200-683) during incubation at ambient temperature with constant shaking at 300 rpm for 1 h (both acceptor and donor). Assay plates were read on a Envision Xcite Multilabel Reader (PerkinElmer 1040900) at ambient temperature, with emission at 535 nm (Total ERK) and emission at 615 nm (Phospho ERK). Ratio of pERK vs total ERK in each well was used as the final readout. Dose response curves and EC50 were analyzed using a 4-parameter logistic equation in GraphPad Prism software.
Compound,"AlphaScreen @18 h, EC50 [1]",SOS assay EC50 [2],EC50 [3]
cyclo(FLac-NMeA-PyrimAla-Nle-Phe2F-Nle-NMeF-amBCP) (peptide),590 nM,17.4 nM,–
cyclo(FLac-NMeNvalmid-PyrimAla-Nle-Phe2F-Nle-NMe3Pal-amBCP) (peptide),> 50800 nM,27.2 nM,–
cyclo(FLac-NMeA-3Pal2F-Nle-Phe2F-Nle-NMe3Pal-amBCP) (peptide),50200 nM,1450 nM,–
cyclo(F-NMeDabN3-3Pal-NleLac-Phe2F-Nle-NMe3Pal-amBCP) (peptide),> 50800 nM,3880 nM,–
cyclo(FLac-NMeA-PyrimAla-cBuA-Phe2F-Nle-NMe3Pal-amBCP) (peptide),45000 nM,–,–
cyclo(1Nal-R-K-Nle-Phe3COOH-Nle-NMeF-Cysteamine-C1Ac) (peptide),> 50800 nM,2120 nM,–
cyclo(FLac-NMeA-4F3Pal-Nle-2Pal6F-Nle-NMeF-amBCP) (peptide),> 50800 nM,870 nM,–
cyclo(FLac-NMeA-PyrimAla-Nle-Phe2F-Nle-NMe3Pal-amBCP) (peptide),13400 nM,33.6 nM,–
cyclo(FLac-NMeA-3Pal-Nle-Phe2F-Nle-NMe3Pal-amBCP) (peptide),7300 nM,36 nM,–
cyclo(FLac-NMeA-PyrimAla-hL-Phe2F-Nle-NMe3Pal-amBCP) (peptide),> 50800 nM,228 nM,–
cyclo(FLac-NMeA-PyrimAla-cPeA-Phe2F-Nle-NMe3Pal-amBCP) (peptide),17400 nM,22.3 nM,–
cyclo(Y-NMeA-3Pal-Nle-Phe2F-Nle-NMe3Pal-amBCP) (peptide),46400 nM,440 nM,–
cyclo(FLac-NMeNvalmid-4CF33Pal-Nle-Phe2F-Nle-NMeF-amBCP) isomer 2 (peptide),> 50800 nM,62.8 nM,–
cyclo(FLac-NMeNvalmid-PyrimAla-Nle-Phe2F-Nle-NMeF-amBCP) isomer 1 (peptide),> 50800 nM,494 nM,–
cyclo(FLac-NMeNvalmid-4F3Pal-Nle-Phe2F-Nle-NMeF-amBCP) isomer 1 (peptide),> 50800 nM,101 nM,–
cyclo(FLac-NMeA-PyrimAla-Nle-2Pal6F-Nle-NMeF-amBCP) (peptide),48700 nM,559 nM,–
cyclo(FLac-NMeA-4F3Pal-Nle-Phe2F-Nle-NMe3Pal-amBCP) (peptide),11800 nM,18.7 nM,–
cyclo(FLac-NMeNle-3Pal-DabN3-Phe2F-Nle-NMe3Pal-amBCP) (peptide),21700 nM,3060 nM,–
cyclo(FLac-NMeA-3Pal-Nle-Phe2F-Nle-NMeCha-amBCP) (peptide),> 50800 nM,2940 nM,–
cyclo(FLac-NMeA-PyrimAla-Leu3F-Phe2F-hL-NMeF-amBCP) (peptide),7730 nM,114 nM,–
cyclo(FLac-NMeNvalmid-3Pal-Nle-Phe2F-Nle-NMe3Pal-c3amCblc) (peptide),> 50800 nM,758 nM,–
cyclo(F-NMeR-3Pal-Nle-TyrOMe-LysN3-NMeF-tamcPr) (peptide),> 50800 nM,224 nM,–
cyclo(Phe4F-NMeA-3Pal-Nle-Phe2F-Nle-NMe3Pal-amBCP) (peptide),42800 nM,99.9 nM,–
cyclo(CPhe-NMeA-PyrimAla-cPrA-Phe2F-Nle3F2-NMeF-MeOximamBCP) isomer 2 (peptide),128 nM,1.7 nM,–
cyclo(FLac-NMeNvaF2-PyrimAla-cPrA-Phe2F-hL-NMeF-amBCP) (peptide),1770 nM,173 nM,–
cyclo(FLac-NMeA-PyrimAla-cBuA-Phe26F2-hL-NMeF-amBCP) (peptide),356 nM,–,–
"CCCC[C@@H]1NC(=O)[C@H](Cc2cncnc2)NC(=O)[C@H](C)N(C)C(=O)[C@H](Cc2ccccc2)OC(=O)C23CC(CNC(=O)[C@H](Cc4ccc(C)cc4)N(C)C(=O)[C@H](CCCC)NC(=O)[C@H](Cc4ccccc4F)NC1=O)(C2)C3 [compound 171, cyclo(FLac-NMeA-PyrimAla-Nle-Phe2F-Nle-NMePhe4Me-amBCP)] (cyclo([NMeA][Ala(pyrimidin-5-yl)][Nle][Phe(2-F)][Nle][NMePhe(4-Me)][X1][PhLac]))",–,–,223 nM
"CCCC[C@@H]1NC(=O)[C@H](Cc2cncnc2)NC(=O)[C@H](C)N(C)C(=O)[C@H](Cc2ccccc2)OC(=O)C23CC(CNC(=O)[C@H](Cc4ccc(F)cc4)N(C)C(=O)[C@H](CCCC)NC(=O)[C@H](Cc4ccccc4F)NC1=O)(C2)C3 [compound 173, cyclo(FLac-NMeA-PyrimAla-Nle-Phe2F-Nle-NMePhe4F-amBCP)] (cyclo([NMeA][Ala(pyrimidin-5-yl)][Nle][Phe(2-F)][Nle][NMePhe(4-F)][X1][PhLac]))",–,–,994 nM
"CCCCC[C@@H]1NC(=O)[C@H](Cc2ccoc2)NC(=O)[C@H](CC2CCC2)NC(=O)[C@H](Cc2cccnc2)NC(=O)[C@H](CCCNC(=N)N)NC(=O)[C@H](Cc2ccccc2)NC(=O)CSC[C@@](C)(C(N)=O)NC(=O)[C@H](Cc2ccccc2)N(C)C1=O [compound 374, cyclo(F-R-3Pal-cBuA-Ala3Fur-Ahp-NMeF-aMeCl-ClAc)] ({CH2CO}-FR[3Pal][Cba][X47][Ahp(2)][NMeF][αMeC]-NH2; thioether N-8)",–,–,> 50800 nM

# Second part, led by results:
"AlphaScreen @18 h, EC50 [1]",SOS assay EC50 [2],Compound,EC50 [3]
589 nM,72.4 nM,cyclo(FLac-NMeA-4F3Pal-Nle-Phe2F-Nle-NMeF-amBCP) (peptide),–
6120 nM,435 nM,cyclo(FLac-NMeDabN3-4CF33Pal-Nle-Phe2F-Nle-NMe3Pal-amBCP) (peptide),–
> 50800 nM,69.7 nM,cyclo(FLac-NMeNvalmid-4F3Pal-Nle-Phe2F-Nle-NMeF-amBCP) isomer 2 (peptide),–
> 50800 nM,35.1 nM,cyclo(FLac-NMeA-3Pal-NvaF-Phe2F-Nle-NMe3Pal-amBCP) (peptide),–
11100 nM,25.3 nM,cyclo(FLac-NMeNvalmid-PyrimAla-Nle-Phe2F-Nle-NMeF-amBCP) isomer 2 (peptide),–
3400 nM,51 nM,cyclo(CPhe-NMeA-PyrimAla-cPrA-Phe2F-Nle3F2-NMeF-MeOximamBCP) isomer 1 (peptide),–
674 nM,1.87 nM,cyclo(FLac-NMeA-PyrimAla-cBuA-Phe2F-hL3F-NMeF-amBCP) (peptide),–
1230 nM,26 nM,cyclo(FLac-NMeNvaF-PyrimAla-cPrA-Phe2F-hL-NMeF-amBCP) (peptide),–
734 nM,12.2 nM,cyclo(FLac-NMeA-PyrimAla-Nle-Phe2F-Nle-NMePhe3F-amBCP) (peptide),–
> 50800 nM,10.8 nM,cyclo(FLac-R-3Pal-cBuA-TyrOMe-Ahp-NMeF-amBCP) (peptide),–
256 nM,6.03 nM,cyclo(FLac-NMeA-PyrimAla-Nle-Phe2F-Nle-NMePhe3Me-amBCP) (peptide),–
886 nM,37.9 nM,cyclo(FLac-NMeA-3Pal-cBuA-TyrOMe-Ahp-NMeF-amBCP) (peptide),–
994 nM,12.5 nM,cyclo(FLac-NMeA-PyrimAla-Nle-Phe2F-Nle-NMePhe4F-amBCP) (peptide),–
11200 nM,590 nM,cyclo(FLac-NMeA-PyrimAla-Nle-Phe2F-Nlecalken3Pal-amBCP) (peptide),–
41200 nM,225 nM,cyclo(FLac-NMeA-PyrimAla-cPrA-Phe2F-Hag-NMeHag-amBCP) (peptide),–
> 50800 nM,1460 nM,cyclo(INal-R-Phe4CH2NH2-Nle-Y-Nle-NMeF-daMeC-C1Ac) (peptide),–
> 50800 nM,1160 nM,cyclo(FLac-NMeNvalmid-PyrimAla-Nle-F2FLac-Nle-NMe3Pal-amBCP) (peptide),–
3480 nM,5590 nM,cyclo(FLac-NMeDabN3-3Pal-Nle-F2FLac-Nle-NMe3Pal-amBCP) (peptide),–
168 nM,1.95 nM,cyclo(FLac-NMeA-PyrimAla-cPrA-Phe2F-hL-NMeF-amBCP) (peptide),–
21000 nM,–,cyclo(F-NMeA-3Pal-Nle-Phe2F-Nle-NMeF-aMeC1-C1Ac) (peptide),–

# From patent US20260001914A1, “MACROCYCLIC PEPTIDES TARGETING KRAS” (Merck Sharp & Dohme LLC, priority 2022, published 2026)
